Data on three molecules can be found in patent US20220380421A1 (University of California, published 2022).

The target of assay [1] is T1, Myc-tagged Apo-SpyCas9 (Streptococcus pyogenes, UniProt Q99ZW2 1-1368).
T1 construct: not shown: 3xMyc tag at the C-terminus
The assay can be described thus: GST-Acr immunoprecipitation from P. aeruginosa expressing Myc-tagged Apo-SpyCas9 without sgRNA; immunoblot (FIGS. 3D, 7C).

Assay [2] addresses T2, Myc-tagged SpyCas9-sgRNA (Streptococcus pyogenes, UniProt Q99ZW2 1-1368).
T2 construct: not shown: 3xMyc tag at the C-terminus
Description: discussion of the co-immunoprecipitation results; state of SpyCas9 not named there.

Assay [3] deals with T2, Myc-tagged SpyCas9-sgRNA. Description: co-immunoprecipitation of Myc-tagged SpyCas9-sgRNA from P. aeruginosa co-expressing GST-Acr; immunoblot and Coomassie gel (FIG. 3B).

T2 sequence (Q99ZW2 whole entry): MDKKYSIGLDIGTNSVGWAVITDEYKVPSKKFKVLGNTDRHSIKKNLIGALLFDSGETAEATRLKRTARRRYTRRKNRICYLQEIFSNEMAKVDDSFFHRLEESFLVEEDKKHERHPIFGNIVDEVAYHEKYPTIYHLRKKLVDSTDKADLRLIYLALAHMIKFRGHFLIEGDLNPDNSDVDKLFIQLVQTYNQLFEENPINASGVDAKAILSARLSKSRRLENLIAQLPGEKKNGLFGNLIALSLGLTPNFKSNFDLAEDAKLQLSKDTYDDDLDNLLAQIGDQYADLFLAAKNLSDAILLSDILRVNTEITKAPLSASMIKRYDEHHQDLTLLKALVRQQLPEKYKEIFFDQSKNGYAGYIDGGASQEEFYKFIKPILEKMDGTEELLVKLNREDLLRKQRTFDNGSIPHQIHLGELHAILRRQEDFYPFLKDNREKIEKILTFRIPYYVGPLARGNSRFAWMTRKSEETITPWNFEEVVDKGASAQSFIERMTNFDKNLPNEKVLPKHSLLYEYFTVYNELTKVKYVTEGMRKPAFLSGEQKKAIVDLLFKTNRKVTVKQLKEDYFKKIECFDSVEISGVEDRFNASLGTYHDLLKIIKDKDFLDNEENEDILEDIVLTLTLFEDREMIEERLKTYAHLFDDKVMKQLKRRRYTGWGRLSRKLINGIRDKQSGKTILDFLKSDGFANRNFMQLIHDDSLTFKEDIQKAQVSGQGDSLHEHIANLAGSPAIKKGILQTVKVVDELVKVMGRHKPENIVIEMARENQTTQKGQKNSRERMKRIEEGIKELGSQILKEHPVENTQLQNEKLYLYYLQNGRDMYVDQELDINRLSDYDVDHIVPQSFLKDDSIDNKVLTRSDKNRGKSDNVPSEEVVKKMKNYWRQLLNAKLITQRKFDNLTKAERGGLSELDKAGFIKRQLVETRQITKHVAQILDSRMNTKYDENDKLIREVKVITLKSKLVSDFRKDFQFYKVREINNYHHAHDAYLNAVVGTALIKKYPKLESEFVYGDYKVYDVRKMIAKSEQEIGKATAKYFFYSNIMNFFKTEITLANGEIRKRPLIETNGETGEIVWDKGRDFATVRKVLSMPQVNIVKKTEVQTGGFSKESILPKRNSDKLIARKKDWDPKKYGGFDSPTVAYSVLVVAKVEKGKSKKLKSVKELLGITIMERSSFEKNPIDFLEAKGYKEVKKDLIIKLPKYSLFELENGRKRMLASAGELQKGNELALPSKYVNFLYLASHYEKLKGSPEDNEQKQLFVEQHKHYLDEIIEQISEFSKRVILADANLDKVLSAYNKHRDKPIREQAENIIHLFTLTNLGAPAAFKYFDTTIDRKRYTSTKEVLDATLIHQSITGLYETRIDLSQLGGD
T1 sequence (Q99ZW2 whole entry): as above

B1: GST-AcrIIA19_Ssim (other)
chain: MKLIVEVEETNYKNLVNYTKLTNESHNILVNRLISEYITKPYELRLDLSERYSNRDLIEFKFMLIEYCKEALQDIKELANSDEAYETDEAFEAVFRQLFEEVISNPDTVLKAFHSYTSFLEENK
In the case of B1, the binding result in assay [1] and in assay [2] was “binds” in each case.

B2: GST-AcrIIA16_Lmo (other)
chain: MGYIGTKRSERSQDAIEDYEVPLNHFNKDLIQAFIDENEAYDTLKTKKVRLWKFVAPRAGATSWHHTGTYYNKTDHYSLEKVADELLQNGDEWEEQFKAYVKEEQETATSEPVFLSVIKVQIWGGSMKRPKLVGHEVVMGVKKEGWLHAVSKATQSKYKLSANKVEMQKHYSLEDYSALTKDFPEFKAQKRAINKKMKEMYN
B2: the binding result in assay [1] and in assay [3] was “binds” in each case.

B3: GST-AcrIIA17_Sga (other)
chain: MKISVDSEKLLNEAINDFDIFGEDFNVYAIYSYREDYDFEYISDYVDADEPTRDEFETEEDYQEVMKDFKENLDSLKFTKHKKMTIADLVHELWEQNRIF
notes: also called GST-AcrIIA7_Sga
Turning to B3, the binding result in assay [1] and in assay [2] was “binds” each time.
